The substances below were run against recombinant wild-type cardiac troponin C (chicken) (UniProt P09860) (assay: native gel or EMSA).
“cTnI(131C), cardiac troponin I single-cysteine mutant C81I/C98S/Q131C labeled with AEDANS (from UniProt P48787 1-211) (natural protein)” was tested, and the stoichiometry N was 1. For “cTnI(151C), cardiac troponin I single-cysteine mutant C81I/C98S/S151C labeled with AEDANS (from UniProt P48787 1-211) (natural protein)”, the stoichiometry N was 1. For “cTnI(160C), cardiac troponin I single-cysteine mutant C81I/C98S/L160C labeled with AEDANS (from UniProt P48787 1-211) (natural protein)”, the stoichiometry N was 1. Work on “cTnI(167C), cardiac troponin I single-cysteine mutant C81I/C98S/S167C labeled with AEDANS (from UniProt P48787 1-211) (natural protein)” yielded a stoichiometry N of 1. Substance “cTnI(188C), cardiac troponin I single-cysteine mutant C81I/C98S/E188C labeled with AEDANS (from UniProt P48787 1-211) (natural protein)” has a stoichiometry N of 1. Substance “cTnI(210C), cardiac troponin I single-cysteine mutant C81I/C98S/E210C labeled with AEDANS (from UniProt P48787 1-211) (natural protein)” has a stoichiometry N of 1.

Each substance was assayed against recombinant wild-type cardiac troponin T (rat) (UniProt P50753) (assay: native gel or EMSA).
“cTnI(131C), cardiac troponin I single-cysteine mutant C81I/C98S/Q131C labeled with AEDANS (from UniProt P48787 1-211) (natural protein)” showed a stoichiometry N of 1. “cTnI(151C), cardiac troponin I single-cysteine mutant C81I/C98S/S151C labeled with AEDANS (from UniProt P48787 1-211) (natural protein)” showed a stoichiometry N of 1. “cTnI(160C), cardiac troponin I single-cysteine mutant C81I/C98S/L160C labeled with AEDANS (from UniProt P48787 1-211) (natural protein)” was tested, and the stoichiometry N was 1. “cTnI(167C), cardiac troponin I single-cysteine mutant C81I/C98S/S167C labeled with AEDANS (from UniProt P48787 1-211) (natural protein)” showed a stoichiometry N of 1. With “cTnI(188C), cardiac troponin I single-cysteine mutant C81I/C98S/E188C labeled with AEDANS (from UniProt P48787 1-211) (natural protein)” the stoichiometry N was 1. “cTnI(210C), cardiac troponin I single-cysteine mutant C81I/C98S/E210C labeled with AEDANS (from UniProt P48787 1-211) (natural protein)” was tested, and the stoichiometry N was 1.

— article PMC2599808
